# Measurements reported in paper PMC9923014, “BIN2 phosphorylates the Thr280 of CO to restrict its function in promoting Arabidopsis flowering” (Frontiers in Plant Science, 2023).
# T1: MBP-BIN2 (Arabidopsis thaliana, UniProt Q39011 1-380)
# T1 construct: also called BIN2-MBP; source: E. coli strain Transetta-DE3, purified
# T1 sequence (looked up): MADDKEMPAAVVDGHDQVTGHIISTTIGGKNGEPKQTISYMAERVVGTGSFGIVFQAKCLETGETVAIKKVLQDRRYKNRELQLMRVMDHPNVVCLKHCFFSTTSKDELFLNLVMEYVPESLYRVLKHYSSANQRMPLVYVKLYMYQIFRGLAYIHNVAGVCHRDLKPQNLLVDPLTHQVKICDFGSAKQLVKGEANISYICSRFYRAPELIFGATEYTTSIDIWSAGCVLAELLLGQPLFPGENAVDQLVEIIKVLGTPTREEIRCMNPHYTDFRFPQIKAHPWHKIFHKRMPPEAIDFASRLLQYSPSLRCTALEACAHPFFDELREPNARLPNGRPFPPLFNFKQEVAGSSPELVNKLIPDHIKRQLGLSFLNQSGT
# B1: GST-CO (natural protein, Arabidopsis thaliana, UniProt Q39057 1-373, looked up)
# chain: MLKQESNDIGSGENNRARPCDTCRSNACTVYCHADSAYLCMSCDAQVHSANRVASRHKRVRVCESCERAPAAFLCEADDASLCTACDSEVHSANPLARRHQRVPILPISGNSFSSMTTTHHQSEKTMTDPEKRLVVDQEEGEEGDKDAKEVASWLFPNSDKNNNNQNNGLLFSDEYLNLVDYNSSMDYKFTGEYSQHQQNCSVPQTSYGGDRVVPLKLEESRGHQCHNQQNFQFNIKYGSSGTHYNDNGSINHNAYISSMETGVVPESTACVTTASHPRTPKGTVEQQPDPASQMITVTQLSPMDREARVLRYREKRKTRKFEKTIRYASRKAYAEIRPRVNGRFAKREIEAEEQGFNTMLMYNTGYGIVPSF
# notes: also called CO-GST; source: E. coli strain Transetta-DE3, purified
# Biological target: T1, MBP-BIN2
# Experiment: pull-down; MBP pull-down on amylose resin; purified GST-CO incubated with MBP or MBP-BIN2 overnight at 4°C; 20 mM Tris pH 8.0, NaCl, 1 mM EDTA; immunoblot with anti-MBP and anti-GST
# Details: both partners purified
binder,measurement,value
B1,binding result,binds
